According to patent publication US20150064134A1:

Columns and labels:
Assay in all cases: cell-based or functional assay
Mer(h) (human) = molecular target: T1, Mer(h) (human) (UniProt Q12866)
T1 sequence (looked up): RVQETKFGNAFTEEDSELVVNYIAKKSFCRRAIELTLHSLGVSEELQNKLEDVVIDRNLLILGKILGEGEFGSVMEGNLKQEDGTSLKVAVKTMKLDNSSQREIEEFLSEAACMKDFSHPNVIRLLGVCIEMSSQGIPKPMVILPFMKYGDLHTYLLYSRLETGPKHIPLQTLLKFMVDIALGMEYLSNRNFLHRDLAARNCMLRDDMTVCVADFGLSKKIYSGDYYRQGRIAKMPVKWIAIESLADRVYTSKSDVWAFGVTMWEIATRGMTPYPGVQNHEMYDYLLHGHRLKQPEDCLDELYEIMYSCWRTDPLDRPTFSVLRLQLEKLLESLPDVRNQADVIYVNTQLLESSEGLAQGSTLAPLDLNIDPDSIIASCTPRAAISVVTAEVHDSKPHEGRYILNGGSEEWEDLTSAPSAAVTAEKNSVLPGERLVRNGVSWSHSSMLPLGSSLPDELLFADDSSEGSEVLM

Abl(h) (human) = Abl(h) (human) (UniProt P00519)
Abl(h) (human), sequence (P00519 27-1130 limits assumed): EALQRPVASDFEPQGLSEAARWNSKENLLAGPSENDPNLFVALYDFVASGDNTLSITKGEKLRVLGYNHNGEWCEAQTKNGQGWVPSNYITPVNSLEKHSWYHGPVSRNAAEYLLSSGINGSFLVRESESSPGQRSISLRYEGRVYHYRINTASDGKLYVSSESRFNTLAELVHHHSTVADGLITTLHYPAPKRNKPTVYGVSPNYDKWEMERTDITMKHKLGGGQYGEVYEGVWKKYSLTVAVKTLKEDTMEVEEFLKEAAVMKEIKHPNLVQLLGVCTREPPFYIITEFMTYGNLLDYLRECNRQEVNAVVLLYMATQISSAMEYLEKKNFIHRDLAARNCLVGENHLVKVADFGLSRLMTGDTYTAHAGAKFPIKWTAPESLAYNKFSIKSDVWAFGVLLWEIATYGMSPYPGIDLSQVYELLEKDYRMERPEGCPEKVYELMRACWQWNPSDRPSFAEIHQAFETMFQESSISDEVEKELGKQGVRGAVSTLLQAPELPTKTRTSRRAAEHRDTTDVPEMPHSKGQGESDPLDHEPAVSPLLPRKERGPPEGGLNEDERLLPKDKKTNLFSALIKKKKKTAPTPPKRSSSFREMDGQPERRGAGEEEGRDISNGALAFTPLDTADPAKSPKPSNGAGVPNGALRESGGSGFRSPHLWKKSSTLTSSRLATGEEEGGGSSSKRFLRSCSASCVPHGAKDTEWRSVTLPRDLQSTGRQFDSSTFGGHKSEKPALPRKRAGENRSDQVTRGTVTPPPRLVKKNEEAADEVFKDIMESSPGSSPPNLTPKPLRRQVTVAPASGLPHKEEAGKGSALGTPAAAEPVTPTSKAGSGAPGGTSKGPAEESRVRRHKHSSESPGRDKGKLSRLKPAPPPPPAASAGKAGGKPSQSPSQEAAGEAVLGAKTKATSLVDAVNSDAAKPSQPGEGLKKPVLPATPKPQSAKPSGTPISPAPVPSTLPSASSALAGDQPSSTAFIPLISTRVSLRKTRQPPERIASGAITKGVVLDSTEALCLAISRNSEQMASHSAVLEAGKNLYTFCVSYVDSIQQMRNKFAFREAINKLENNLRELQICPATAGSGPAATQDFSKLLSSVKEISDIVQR

PKCε(h) (human) = PKCε(h) (human) (UniProt Q02156)
SGK2(h) (human) = molecular target: T2, SGK2(h) (human) (UniProt Q9HBY8)
T2 sequence (looked up): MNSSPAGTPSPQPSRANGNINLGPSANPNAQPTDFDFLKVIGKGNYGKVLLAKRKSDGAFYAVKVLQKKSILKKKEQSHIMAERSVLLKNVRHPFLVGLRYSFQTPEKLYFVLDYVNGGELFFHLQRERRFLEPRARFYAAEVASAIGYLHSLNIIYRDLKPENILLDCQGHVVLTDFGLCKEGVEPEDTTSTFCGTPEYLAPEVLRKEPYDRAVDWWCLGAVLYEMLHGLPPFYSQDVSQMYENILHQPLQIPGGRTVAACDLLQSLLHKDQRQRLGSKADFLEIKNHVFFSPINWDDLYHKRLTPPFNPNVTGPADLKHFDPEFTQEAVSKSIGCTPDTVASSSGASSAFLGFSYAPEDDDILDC

EphA5(h) (human) = molecular target: T3, EphA5(h) (human) (UniProt P54756)
T3 sequence (looked up): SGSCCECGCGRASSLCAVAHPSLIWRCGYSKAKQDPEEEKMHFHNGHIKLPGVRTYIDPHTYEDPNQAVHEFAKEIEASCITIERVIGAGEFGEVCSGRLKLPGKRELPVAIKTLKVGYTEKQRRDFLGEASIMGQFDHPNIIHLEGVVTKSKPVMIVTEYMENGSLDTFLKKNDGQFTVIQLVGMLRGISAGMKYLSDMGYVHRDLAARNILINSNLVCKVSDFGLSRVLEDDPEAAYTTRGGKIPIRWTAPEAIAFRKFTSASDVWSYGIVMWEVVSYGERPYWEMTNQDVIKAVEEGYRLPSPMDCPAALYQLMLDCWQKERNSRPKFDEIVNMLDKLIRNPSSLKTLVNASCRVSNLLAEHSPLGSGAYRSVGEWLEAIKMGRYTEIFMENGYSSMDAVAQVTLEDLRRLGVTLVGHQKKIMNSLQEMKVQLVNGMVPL

PKCβII(h) (human) = PKCβII(h) (human) (UniProt P05771)
Abl(Y253F)(h) (human) = Abl(Y253F)(h) (human) (UniProt P00519)
Abl(Y253F)(h) (human), sequence (P00519 27-1130 Y253F limits assumed): as the sequence (P00519 27-1130 limits assumed) above, with Y227F counted along it

Tec(h) activated (human) = molecular target: T4, Tec(h) activated (human) (UniProt P42680)
T4 sequence (looked up): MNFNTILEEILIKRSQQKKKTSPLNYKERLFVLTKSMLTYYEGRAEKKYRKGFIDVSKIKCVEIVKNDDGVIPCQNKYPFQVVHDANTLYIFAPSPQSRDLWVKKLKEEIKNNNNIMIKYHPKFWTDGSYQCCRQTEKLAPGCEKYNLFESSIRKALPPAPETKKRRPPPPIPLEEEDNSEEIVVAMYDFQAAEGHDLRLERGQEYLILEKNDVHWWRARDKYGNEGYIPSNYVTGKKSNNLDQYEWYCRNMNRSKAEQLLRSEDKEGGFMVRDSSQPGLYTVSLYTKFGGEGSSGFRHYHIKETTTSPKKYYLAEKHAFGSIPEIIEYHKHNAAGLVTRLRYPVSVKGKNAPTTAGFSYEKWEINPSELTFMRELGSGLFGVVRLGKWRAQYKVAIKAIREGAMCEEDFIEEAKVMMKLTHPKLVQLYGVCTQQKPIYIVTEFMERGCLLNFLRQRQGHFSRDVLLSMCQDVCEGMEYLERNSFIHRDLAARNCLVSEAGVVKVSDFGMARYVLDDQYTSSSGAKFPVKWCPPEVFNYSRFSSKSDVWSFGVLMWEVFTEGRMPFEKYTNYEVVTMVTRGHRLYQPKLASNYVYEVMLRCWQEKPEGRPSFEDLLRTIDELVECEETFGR

EGFR(L861Q)(h) (human) = EGFR(L861Q)(h) (human) (UniProt P00533)
CSK(h) (human) = CSK(h) (human) (UniProt P41240)
[1] = molecular target: CDK9/cyclin T1(h) (human) (UniProt P50750)
TAO1(h) (human) = molecular target: T5, TAO1(h) (human) (UniProt Q7L7X3)
T5 sequence (looked up): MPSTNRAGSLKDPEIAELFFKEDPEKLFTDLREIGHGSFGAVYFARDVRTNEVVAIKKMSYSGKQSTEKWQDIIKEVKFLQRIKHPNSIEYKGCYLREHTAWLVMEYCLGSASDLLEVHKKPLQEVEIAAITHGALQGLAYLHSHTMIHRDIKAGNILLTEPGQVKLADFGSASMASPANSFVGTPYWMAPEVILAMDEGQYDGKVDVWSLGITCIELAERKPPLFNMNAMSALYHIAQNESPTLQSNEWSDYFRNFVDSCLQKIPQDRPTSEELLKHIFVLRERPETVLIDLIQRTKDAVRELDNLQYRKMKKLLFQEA

| % activity at 100 µM (Mer(h) (human)) | % activity at 100 µM (Abl(h) (human)) | % activity at 100 µM (PKCε(h) (human)) | % activity at 100 µM (SGK2(h) (human)) | % activity at 100 µM (EphA5(h) (human)) | % activity at 100 µM (PKCβII(h) (human)) | % activity at 100 µM (Abl(Y253F)(h) (human)) | % activity at 100 µM (Tec(h) activated (human)) | % activity at 100 µM (EGFR(L861Q)(h) (human)) | % activity at 100 µM (CSK(h) (human)) | % activity at 100 µM [1] | % activity at 100 µM (TAO1(h) (human)) | Substance |
| --- | --- | --- | --- | --- | --- | --- | --- | --- | --- | --- | --- | --- |
| 52% | 69% | 79% | 56% | 18% | 82% | 86% | 56% | 25% | 49% | 91% | 82% | MMI-0300 (peptide) |
| 50% | 84% | 59% | 98% | 24% | 75% | 78% | 29% | 22% | 16% | 235% | 73% | MMI-0400 (peptide) |
| 17% | 16% | 23% | -1% | 42% | 3% | 29% | 33% | 15% | 2% | 6% | 24% | MMI-0500 (peptide) |
